# Read-outs that look alike come from different tables or passages of the source. Square brackets hold non-standard residues; d marks the D form. Bip = N[C@@H](Cc1ccc(-c2ccccc2)cc1)C(=O)O; dPhe(4-I) = N[C@H](Cc1ccc(I)cc1)C(=O)O; 2Nal = N[C@@H](Cc1ccc2ccccc2c1)C(=O)O; d2Nal = N[C@H](Cc1ccc2ccccc2c1)C(=O)O; Bta = N[C@@H](Cc1csc2ccccc12)C(=O)O; Tic = O=C(O)[C@@H]1Cc2ccccc2CN1
# How the values were obtained:
# [1] = target: T1, mouse melanocortin-4 receptor (mouse, UniProt P56450 1-332); assay: 125I-NDP-MSH competitive displacement, HEK293 cells stably expressing mMC4R; negative = more potent than control
# T1 construct: whole, on cells; also called mMC4R; MC4R
# T1 sequence (P56450 whole entry): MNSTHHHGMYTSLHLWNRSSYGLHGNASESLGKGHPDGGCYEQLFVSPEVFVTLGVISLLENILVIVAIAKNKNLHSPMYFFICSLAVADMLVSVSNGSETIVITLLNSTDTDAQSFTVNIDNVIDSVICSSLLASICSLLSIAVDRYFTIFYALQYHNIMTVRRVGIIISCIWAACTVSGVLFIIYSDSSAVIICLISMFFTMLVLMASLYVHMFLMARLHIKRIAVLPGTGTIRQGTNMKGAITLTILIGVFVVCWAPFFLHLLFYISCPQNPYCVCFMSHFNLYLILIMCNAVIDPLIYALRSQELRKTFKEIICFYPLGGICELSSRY
# Excerpt: (§1) A typical experiment utilized a 12-well format.
# [2] = target: T2, mouse melanocortin-3 receptor (mouse, UniProt P33033 1-323); assay: 125I-NDP-MSH competitive displacement, HEK293 cells stably expressing mMC3R; negative = more potent than control
# T2 construct: whole, on cells; also called mMC3R; MC3R
# T2 sequence (P33033 whole entry): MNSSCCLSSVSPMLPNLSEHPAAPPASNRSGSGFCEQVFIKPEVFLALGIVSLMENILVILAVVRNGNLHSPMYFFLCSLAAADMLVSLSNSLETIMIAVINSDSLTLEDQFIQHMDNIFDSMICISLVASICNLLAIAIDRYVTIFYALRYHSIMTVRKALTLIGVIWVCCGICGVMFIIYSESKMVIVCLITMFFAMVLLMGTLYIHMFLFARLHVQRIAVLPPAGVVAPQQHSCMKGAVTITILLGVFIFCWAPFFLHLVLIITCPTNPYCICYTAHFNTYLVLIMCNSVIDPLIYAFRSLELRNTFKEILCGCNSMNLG
# Excerpt: as §1
# [3] = target: T1, mouse melanocortin-4 receptor; assay: cell-based or functional assay
# [4] = target: mouse melanocortin-1 receptor (mouse, UniProt Q01727 1-315); assay: cell-based or functional assay
# Chain of mouse melanocortin-1 receptor (Q01727 whole entry): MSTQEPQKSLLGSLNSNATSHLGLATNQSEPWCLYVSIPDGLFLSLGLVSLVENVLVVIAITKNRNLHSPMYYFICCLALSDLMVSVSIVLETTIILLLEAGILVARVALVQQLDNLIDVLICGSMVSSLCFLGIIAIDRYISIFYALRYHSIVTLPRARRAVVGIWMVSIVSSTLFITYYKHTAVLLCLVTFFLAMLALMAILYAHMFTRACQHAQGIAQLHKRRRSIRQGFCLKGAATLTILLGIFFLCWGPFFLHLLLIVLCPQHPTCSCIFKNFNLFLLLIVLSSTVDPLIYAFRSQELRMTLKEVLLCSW
# [5] = target: mouse melanocortin-5 receptor (mouse, UniProt P41149 1-325); assay: cell-based or functional assay
# Chain of mouse melanocortin-5 receptor (P41149 whole entry): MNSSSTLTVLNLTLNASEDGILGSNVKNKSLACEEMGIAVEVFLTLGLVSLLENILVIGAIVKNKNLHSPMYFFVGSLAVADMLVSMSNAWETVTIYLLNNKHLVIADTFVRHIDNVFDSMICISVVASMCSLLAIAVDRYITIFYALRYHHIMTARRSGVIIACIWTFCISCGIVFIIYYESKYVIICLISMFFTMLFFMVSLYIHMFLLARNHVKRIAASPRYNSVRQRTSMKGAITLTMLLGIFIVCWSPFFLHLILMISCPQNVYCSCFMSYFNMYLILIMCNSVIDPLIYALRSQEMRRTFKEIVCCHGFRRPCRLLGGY
# [6] = target: T2, mouse melanocortin-3 receptor; assay: cell-based or functional assay
# [7] = target: T1, mouse melanocortin-4 receptor; assay: cell-based or functional assay; remark: listed apart in the source
Binder,"Agonist, % of NDP-MSH maximal response [3] [% @ 100 µM]","Agonist, % of NDP-MSH maximal response [5] [% @ 100 µM]","Agonist, % of NDP-MSH maximal response [6] [% @ 100 µM]",further results
"Ac-RR[dPhe(4-I)][Bta]-NH2 [SKY4-48-10, Ac-Arg-Arg-(pI)DPhe-3Bal-NH2]",24,–,–,Fold Diff. (IC50 against SKY4-48-1) [1]: 1 fold; Fold Diff. (IC50 against SKY4-48-1) [2]: -52 fold
"Ac-RR[dPhe(4-I)]F-NH2 (SMILES CC(=O)N[C@@H](CCCNC(=N)N)C(=O)N[C@@H](CCCNC(=N)N)C(=O)N[C@H](Cc1ccc(I)cc1)C(=O)N[C@@H](Cc1ccccc1)C(N)=O) [SKY4-48-26, Ac-Arg-Arg-(pI)DPhe-Phe-NH2]",–,–,–,Fold Diff. (IC50 against SKY4-48-1) [1]: 4 fold; Fold Diff. (IC50 against SKY4-48-1) [2]: -8 fold
"Ac-[Tic]R[dPhe(4-I)][2Nal]-NH2 [SKY4-48-38, Ac-Tic-Arg-(pI)DPhe-Nal(2')-NH2]",–,48,–,"Agonist, % of NDP-MSH maximal response [4]: 66 % @ 100 µM"
"Ac-[Bip]R[dPhe(4-I)][Bip]-NH2 [SKY4-48-4, Ac-Bip-Arg-(pI)DPhe-Bip-NH2]",24,–,–,–
"Ac-[Tic]R[dPhe(4-I)][Bip]-NH2 [SKY5-146-1, Ac-Tic-Arg-(pI)DPhe-Bip-NH2]",–,–,–,"Agonist, % of NDP-MSH maximal response [4]: 39 % @ 100 µM"
"Ac-[Bta]R[dPhe(4-I)][Bip]-NH2 [SKY4-48-5, Ac-3Bal-Arg-(pI)DPhe-Bip-NH2]",35,–,51,–
"Ac-[Bip]R[dPhe(4-I)][d2Nal]-NH2 [SKY4-48-44, Ac-Bip-Arg-(pI)DPhe-DNal(2')-NH2]",–,55,32,–
"Ac-[Bip]R[dPhe(4-I)][2Nal]-NH2 [SKY4-48-36, Ac-Bip-Arg-(pI)DPhe-Nal(2')-NH2]",–,21,–,"Agonist, % of NDP-MSH maximal response [4]: 23 % @ 100 µM"
"Ac-HR[dPhe(4-I)][d2Nal]-NH2 [SKY4-48-43, Ac-His-Arg-(pI)DPhe-DNal(2')-NH2]",50,47,–,–
"Ac-[d2Nal]R[dPhe(4-I)][Bip]-NH2 [SKY5-146-2, Ac-DNal(2')-Arg-(pI)DPhe-Bip-NH2]",42,–,30,–
"Ac-[2Nal]R[dPhe(4-I)][Tic]-NH2 [SKY4-48-24, Ac-Nal(2')-Arg-(pI)DPhe-Tic-NH2]",33,–,–,–
"Ac-FR[dPhe(4-I)][d2Nal]-NH2 [SKY4-48-47, Ac-Phe-Arg-(pI)DPhe-DNal(2')-NH2]",–,39,22,–
"Ac-[2Nal]R[dPhe(4-I)][2Nal]-NH2 [SKY4-48-40, Ac-Nal(2')-Arg-(pI)DPhe-Nal(2')-NH2]",–,45,39,–
"Ac-[Bta]R[dPhe(4-I)][2Nal]-NH2 [SKY4-48-37, Ac-3Bal-Arg-(pI)DPhe-Nal(2')-NH2]",–,50,–,–
"Ac-RR[dPhe(4-I)][Bip]-NH2 [SKY4-48-2, Ac-Arg-Arg-(pI)DPhe-Bip-NH2]",32,–,45,"Agonist, % of NDP-MSH maximal response [4]: 44 % @ 100 µM"
"Ac-[Tic]R[dPhe(4-I)][Bta]-NH2 [SKY4-48-14, Ac-Tic-Arg-(pI)DPhe-3Bal-NH2]",–,–,–,"Agonist, % of NDP-MSH maximal response [4]: 38 % @ 100 µM"
"Ac-HR[dPhe(4-I)][Bip]-NH2 [SKY4-48-3, Ac-His-Arg-(pI)DPhe-Bip-NH2]",43,–,53,–
"Ac-[d2Nal]R[dPhe(4-I)][Bta]-NH2 [SKY4-48-17, Ac-DNal(2')-Arg-(pI)DPhe-3Bal-NH2]",45,–,–,–

Binder,"Agonist, % of NDP-MSH maximal response [3] [% @ 100 µM]","Agonist, % of NDP-MSH maximal response [5] [% @ 100 µM]","Agonist, % of NDP-MSH maximal response [6] [% @ 100 µM]",further results
"Ac-RR[dPhe(4-I)][2Nal]-NH2 [SKY4-48-34, Ac-Arg-Arg-(pI)DPhe-Nal(2')-NH2]",–,–,51,–
"Ac-[d2Nal]R[dPhe(4-I)][2Nal]-NH2 [SKY5-146-5, Ac-DNal(2')-Arg-(pI)DPhe-Nal(2')-NH2]",39,40,43,–
"Ac-FR[dPhe(4-I)][2Nal]-NH2 [SKY4-48-39, Ac-Phe-Arg-(pI)DPhe-Nal(2')-NH2]",–,61,44,–
"Ac-[d2Nal]R[dPhe(4-I)][d2Nal]-NH2 [SKY4-48-49, Ac-DNal(2')-Arg-(pI)DPhe-DNal(2')-NH2]",37,43,40,–
"Ac-[Bta]R[dPhe(4-I)]F-NH2 (SMILES CC(=O)N[C@@H](Cc1csc2ccccc12)C(=O)N[C@@H](CCCNC(=N)N)C(=O)N[C@H](Cc1ccc(I)cc1)C(=O)N[C@@H](Cc1ccccc1)C(N)=O) [SKY5-146-4, Ac-3Bal-Arg-(pI)DPhe-Phe-NH2]",–,35,37,–
"Ac-HR[dPhe(4-I)]W-NH2 (SMILES CC(=O)N[C@@H](Cc1c[nH]cn1)C(=O)N[C@@H](CCCNC(=N)N)C(=O)N[C@H](Cc1ccc(I)cc1)C(=O)N[C@@H](Cc1c[nH]c2ccccc12)C(N)=O) [SKY5-146-7, Ac-His-Arg-(pI)DPhe-Trp-NH2]",–,–,–,"Agonist, % of NDP-MSH maximal response [7]: 29 % @ 100 µM; pA2 (antagonist) [7]: 6 pA2"
"Ac-[2Nal]R[dPhe(4-I)]F-NH2 (SMILES CC(=O)N[C@@H](Cc1ccc2ccccc2c1)C(=O)N[C@@H](CCCNC(=N)N)C(=O)N[C@H](Cc1ccc(I)cc1)C(=O)N[C@@H](Cc1ccccc1)C(N)=O) [SKY4-48-32, Ac-Nal(2')-Arg-(pI)DPhe-Phe-NH2]",–,49,42,–
"Ac-[Bta]R[dPhe(4-I)][d2Nal]-NH2 [SKY4-48-45, Ac-3Bal-Arg-(pI)DPhe-DNal(2')-NH2]",38,41,34,"Agonist, % of NDP-MSH maximal response [4]: 36 % @ 100 µM"
"Ac-[Bip]R[dPhe(4-I)]F-NH2 (SMILES CC(=O)N[C@@H](Cc1ccc(-c2ccccc2)cc1)C(=O)N[C@@H](CCCNC(=N)N)C(=O)N[C@H](Cc1ccc(I)cc1)C(=O)N[C@@H](Cc1ccccc1)C(N)=O) [SKY4-48-28, Ac-Bip-Arg-(pI)DPhe-Phe-NH2]",–,69,77,–
"Ac-FR[dPhe(4-I)]F-NH2 (SMILES CC(=O)N[C@@H](Cc1ccccc1)C(=O)N[C@@H](CCCNC(=N)N)C(=O)N[C@H](Cc1ccc(I)cc1)C(=O)N[C@@H](Cc1ccccc1)C(N)=O) [SKY4-48-31, Ac-Phe-Arg-(pI)DPhe-Phe-NH2]",–,52,50,–
"Ac-[Tic]R[dPhe(4-I)][d2Nal]-NH2 [SKY4-48-46, Ac-Tic-Arg-(pI)DPhe-DNal(2')-NH2]",33,74,42,–
"Ac-HR[dPhe(4-I)][2Nal]-NH2 [SKY4-48-35, Ac-His-Arg-(pI)DPhe-Nal(2')-NH2]",35,–,57,–
"Ac-FR[dPhe(4-I)][Bip]-NH2 [SKY4-48-7, Ac-Phe-Arg-(pI)DPhe-Bip-NH2]",–,–,30,"Agonist, % of NDP-MSH maximal response [4]: 67 % @ 100 µM"
"Ac-[Tic]R[dPhe(4-I)][Tic]-NH2 [SKY6-24-1, Ac-Tic-Arg-(pI)DPhe-Tic-NH2]",36,–,–,–
"Ac-[2Nal]R[dPhe(4-I)][d2Nal]-NH2 [SKY4-48-48, Ac-Nal(2')-Arg-(pI)DPhe-DNal(2')-NH2]",–,40,31,"Agonist, % of NDP-MSH maximal response [4]: 53 % @ 100 µM"
"Ac-[Tic]R[dPhe(4-I)]F-NH2 (SMILES CC(=O)N1Cc2ccccc2C[C@H]1C(=O)N[C@@H](CCCNC(=N)N)C(=O)N[C@H](Cc1ccc(I)cc1)C(=O)N[C@@H](Cc1ccccc1)C(N)=O) [SKY4-48-30, Ac-Tic-Arg-(pI)DPhe-Phe-NH2]",–,21,–,–
"Ac-[Bta]R[dPhe(4-I)][Tic]-NH2 [SKY4-48-21, Ac-3Bal-Arg-(pI)DPhe-Tic-NH2]",37,–,–,–

# Source: patent US20170342107A1 (REGENTS OF THE UNIVERSITY OF MINNESOTA, published 2017)
